Source: patent publication US20150203577A1 (Chugai, published 2015)

T1: mouse FcγRII (mouse, UniProt P08101 30-210)
T1 construct: Extracellular domain with C-terminal His tag, made in FreeStyle 293 cells; also called mFcγRII; mFcgRII
T1 sequence: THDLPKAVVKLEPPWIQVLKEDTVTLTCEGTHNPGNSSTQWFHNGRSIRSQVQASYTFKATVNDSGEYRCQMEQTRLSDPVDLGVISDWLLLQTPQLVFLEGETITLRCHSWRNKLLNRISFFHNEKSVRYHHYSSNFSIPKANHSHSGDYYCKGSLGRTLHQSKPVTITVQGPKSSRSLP

T2: mouse FcγRIII (mouse, UniProt P08508 31-215)
T2 construct: Extracellular domain with C-terminal His tag, made in FreeStyle 293 cells; also called mFcγRIII; mFcgRIII
T2 chain: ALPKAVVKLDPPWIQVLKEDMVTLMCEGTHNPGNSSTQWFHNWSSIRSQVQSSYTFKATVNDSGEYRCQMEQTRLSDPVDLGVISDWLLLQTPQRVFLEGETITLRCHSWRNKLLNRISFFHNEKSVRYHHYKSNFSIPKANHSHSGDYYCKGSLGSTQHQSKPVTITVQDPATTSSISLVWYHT


Legend:
mouse FcγRII [1] = biological target: T1, mouse FcγRII; assay: SPR (Biacore), antibody captured on Protein L
mouse FcγRIII [2] = biological target: T2, mouse FcγRIII; assay: SPR (Biacore), antibody captured on Protein L
mouse FcγRII [3] = biological target: T1, mouse FcγRII; assay: SPR (Biacore), KD of H237-mIgG1/MRAL-k0 (same run) / KD of variant
mouse FcγRIII [4] = biological target: T2, mouse FcγRIII; assay: as above

Binder	Kd (mouse FcγRII [1]) [nM]	Kd (mouse FcγRIII [2]) [nM]	relative mFcγRII-binding activity (mIgG1 = 1) (mouse FcγRII [3]) [fold]	relative mFcγRIII-binding activity (mIgG1 = 1) (mouse FcγRIII [4]) [fold]
H237-MB702/MRAL-k0 (antibody, mouse IgG1, kappa, copies: 2 + 2) heavy: QVQLQESGPGLVKPSETLSLTCAVSGHSISHDHAWSWVRQPPGEGLEWIGFISYSGITNYNPSLQGRVTISRDNSKNTLYLQMNSLRAEDTAVYYCARSLARTTAMDYWGEGTLVTVSSAKTTPPSVYPLAPGSAAQTNSMVTLGCLVKGYFPEPVTVTWNSGSLSSGVHTFPAVLQSDLYTLSSSVTVPSSTWPSETVTCNVAHPASSTKVDKKIVPRDCGCKPCICTAYEVENVFIFPPKPKDVLTITLTPKVTCVVVDISKDDPEVQFSWFVDDVEVHTAQTQPREEQFNSTFRSVSELPIMHQDWLNGKEFKCRVNSAAFPAPIEKTISKTKGRPKAPQVYTIPPPKEQMAKDKVSLTCMITDFFPEDITVEWQWNGQPAENYKNTQPIMDTDGSYFVYSKLNVQKSNWEAGNTFTCSVLHEGLHNHHTEKSLSHSPGK light: not shown	339	3520	0.96	0.14
H237-MB717/MRAL-k0 (antibody, mouse IgG1, kappa, copies: 2 + 2) heavy: QVQLQESGPGLVKPSETLSLTCAVSGHSISHDHAWSWVRQPPGEGLEWIGFISYSGITNYNPSLQGRVTISRDNSKNTLYLQMNSLRAEDTAVYYCARSLARTTAMDYWGEGTLVTVSSAKTTPPSVYPLAPGSAAQTNSMVTLGCLVKGYFPEPVTVTWNSGSLSSGVHTFPAVLQSDLYTLSSSVTVPSSTWPSETVTCNVAHPASSTKVDKKIVPRDCGCKPCICEPNEVEPVFIFPPKPKDVLTITLTPKVTCVVVDISKDDPEVQFSWFVDDVEVHTAQTQPREEQFNSTFRSVSELPIMHQDWLNGKEFKCRVNSAAFPAPIEKTISKTKGRPKAPQVYTIPPPKEQMAKDKVSLTCMITDFFPEDITVEWQWNGQPAENYKNTQPIMDTDGSYFVYSKLNVQKSNWEAGNTFTCSVLHEGLHNHHTEKSLSHSPGK light: not shown	514	8620	0.52	0.05
H237-MB715/MRAL-k0 (antibody, mouse IgG1, kappa, copies: 2 + 2) heavy: QVQLQESGPGLVKPSETLSLTCAVSGHSISHDHAWSWVRQPPGEGLEWIGFISYSGITNYNPSLQGRVTISRDNSKNTLYLQMNSLRAEDTAVYYCARSLARTTAMDYWGEGTLVTVSSAKTTPPSVYPLAPGSAAQTNSMVTLGCLVKGYFPEPVTVTWNSGSLSSGVHTFPAVLQSDLYTLSSSVTVPSSTWPSETVTCNVAHPASSTKVDKKIVPRDCGCKPCICEPNEVEVVFIFPPKPKDVLTITLTPKVTCVVVDISKDDPEVQFSWFVDDVEVHTAQTQPREEQFNSTFRSVSELPIMHQDWLNGKEFKCRVNSAAFPAPIEKTISKTKGRPKAPQVYTIPPPKEQMAKDKVSLTCMITDFFPEDITVEWQWNGQPAENYKNTQPIMDTDGSYFVYSKLNVQKSNWEAGNTFTCSVLHEGLHNHHTEKSLSHSPGK light: not shown	236	11900	1.14	0.04
H237-MB718/MRAL-k0 (antibody, mouse IgG1, kappa, copies: 2 + 2) heavy: QVQLQESGPGLVKPSETLSLTCAVSGHSISHDHAWSWVRQPPGEGLEWIGFISYSGITNYNPSLQGRVTISRDNSKNTLYLQMNSLRAEDTAVYYCARSLARTTAMDYWGEGTLVTVSSAKTTPPSVYPLAPGSAAQTNSMVTLGCLVKGYFPEPVTVTWNSGSLSSGVHTFPAVLQSDLYTLSSSVTVPSSTWPSETVTCNVAHPASSTKVDKKIVPRDCGCKPCICEPNEVETVFIFPPKPKDVLTITLTPKVTCVVVDISKDDPEVQFSWFVDDVEVHTAQTQPREEQFNSTFRSVSELPIMHQDWLNGKEFKCRVNSAAFPAPIEKTISKTKGRPKAPQVYTIPPPKEQMAKDKVSLTCMITDFFPEDITVEWQWNGQPAENYKNTQPIMDTDGSYFVYSKLNVQKSNWEAGNTFTCSVLHEGLHNHHTEKSLSHSPGK light: not shown	247	5560	1.08	0.08
H237-MB709/MRAL-k0 (antibody, mouse IgG1, kappa, copies: 2 + 2) heavy: QVQLQESGPGLVKPSETLSLTCAVSGHSISHDHAWSWVRQPPGEGLEWIGFISYSGITNYNPSLQGRVTISRDNSKNTLYLQMNSLRAEDTAVYYCARSLARTTAMDYWGEGTLVTVSSAKTTPPSVYPLAPGSAAQTNSMVTLGCLVKGYFPEPVTVTWNSGSLSSGVHTFPAVLQSDLYTLSSSVTVPSSTWPSETVTCNVAHPASSTKVDKKIVPRDCGCKPCICEPAEVETVFIFPPKPKDVLTITLTPKVTCVVVDISKDDPEVQFSWFVDDVEVHTAQTQPREEQFNSTFRSVSELPIMHQDWLNGKEFKCRVNSAAFPAPIEKTISKTKGRPKAPQVYTIPPPKEQMAKDKVSLTCMITDFFPEDITVEWQWNGQPAENYKNTQPIMDTDGSYFVYSKLNVQKSNWEAGNTFTCSVLHEGLHNHHTEKSLSHSPGK light: not shown	345	7690	0.78	0.06
H237-MB703/MRAL-k0 (antibody, mouse IgG1, kappa, copies: 2 + 2) heavy: QVQLQESGPGLVKPSETLSLTCAVSGHSISHDHAWSWVRQPPGEGLEWIGFISYSGITNYNPSLQGRVTISRDNSKNTLYLQMNSLRAEDTAVYYCARSLARTTAMDYWGEGTLVTVSSAKTTPPSVYPLAPGSAAQTNSMVTLGCLVKGYFPEPVTVTWNSGSLSSGVHTFPAVLQSDLYTLSSSVTVPSSTWPSETVTCNVAHPASSTKVDKKIVPRDCGCKPCICEAPEVENVFIFPPKPKDVLTITLTPKVTCVVVDISKDDPEVQFSWFVDDVEVHTAQTQPREEQFNSTFRSVSELPIMHQDWLNGKEFKCRVNSAAFPAPIEKTISKTKGRPKAPQVYTIPPPKEQMAKDKVSLTCMITDFFPEDITVEWQWNGQPAENYKNTQPIMDTDGSYFVYSKLNVQKSNWEAGNTFTCSVLHEGLHNHHTEKSLSHSPGK light: not shown	345	4900	0.94	0.1
H237-MB732/MRAL-k0 (antibody, mouse IgG1, kappa, copies: 2 + 2) heavy: QVQLQESGPGLVKPSETLSLTCAVSGHSISHDHAWSWVRQPPGEGLEWIGFISYSGITNYNPSLQGRVTISRDNSKNTLYLQMNSLRAEDTAVYYCARSLARTTAMDYWGEGTLVTVSSAKTTPPSVYPLAPGSAAQTNSMVTLGCLVKGYFPEPVTVTWNSGSLSSGVHTFPAVLQSDLYTLSSSVTVPSSTWPSETVTCNVAHPASSTKVDKKIVPRDCGCKPCICEPNEEELVFIFPPKPKDVLTITLTPKVTCVVVDISKDDPEVQFSWFVDDVEVHTAQTQPREEQFNSTFRSVSELPIMHQDWLNGKEFKCRVNSAAFPAPIEKTISKTKGRPKAPQVYTIPPPKEQMAKDKVSLTCMITDFFPEDITVEWQWNGQPAENYKNTQPIMDTDGSYFVYSKLNVQKSNWEAGNTFTCSVLHEGLHNHHTEKSLSHSPGK light: not shown	321	13700	0.84	0.03
H237-MB886/MRAL-k0 (antibody, mouse IgG1, kappa, copies: 2 + 2) heavy: QVQLQESGPGLVKPSETLSLTCAVSGHSISHDHAWSWVRQPPGEGLEWIGFISYSGITNYNPSLQGRVTISRDNSKNTLYLQMNSLRAEDTAVYYCARSLARTTAMDYWGEGTLVTVSSAKTTPPSVYPLAPGSAAQTNSMVTLGCLVKGYFPEPVTVTWNSGSLSSGVHTFPAVLQSDLYTLSSSVTVPSSTWPSETVTCNVAHPASSTKVDKKIVPRDCGCKPCICEPNEEESVFIFPPKPKDVLTITLTPKVTCVVVDISKDDPEVQFSWFVDDVEVHTAQTQPREEQFNSTFRSVSELPIMHQDWLNGKEFKCRVNSAAFPAPIEKTISKTKGRPKAPQVYTIPPPKEQMAKDKVSLTCMITDFFPEDITVEWQWNGQPAENYKNTQPIMDTDGSYFVYSKLNVQKSNWEAGNTFTCSVLHEGLHNHHTEKSLSHSPGK light: not shown	246	7220	1.47	0.08
H237-MB731/MRAL-k0 (antibody, mouse IgG1, kappa, copies: 2 + 2) heavy: QVQLQESGPGLVKPSETLSLTCAVSGHSISHDHAWSWVRQPPGEGLEWIGFISYSGITNYNPSLQGRVTISRDNSKNTLYLQMNSLRAEDTAVYYCARSLARTTAMDYWGEGTLVTVSSAKTTPPSVYPLAPGSAAQTNSMVTLGCLVKGYFPEPVTVTWNSGSLSSGVHTFPAVLQSDLYTLSSSVTVPSSTWPSETVTCNVAHPASSTKVDKKIVPRDCGCKPCICEPAEEELVFIFPPKPKDVLTITLTPKVTCVVVDISKDDPEVQFSWFVDDVEVHTAQTQPREEQFNSTFRSVSELPIMHQDWLNGKEFKCRVNSAAFPAPIEKTISKTKGRPKAPQVYTIPPPKEQMAKDKVSLTCMITDFFPEDITVEWQWNGQPAENYKNTQPIMDTDGSYFVYSKLNVQKSNWEAGNTFTCSVLHEGLHNHHTEKSLSHSPGK light: not shown	238	15300	1.13	0.03
H237-MB793/MRAL-k0 (antibody, 'S2391' in r30c2 read as S239I; copies: 2 + 2) heavy: QVQLQESGPGLVKPSETLSLTCAVSGHSISHDHAWSWVRQPPGEGLEWIGFISYSGITNYNPSLQGRVTISRDNSKNTLYLQMNSLRAEDTAVYYCARSLARTTAMDYWGEGTLVTVSSAKTTPPSVYPLAPGSAAQTNSMVTLGCLVKGYFPEPVTVTWNSGSLSSGVHTFPAVLQSDLYTLSSSVTVPSSTWPSETVTCNVAHPASSTKVDKKIVPRDCGCKPCICQPNEVEIVFIFPPKPKDVLTITLTPKVTCVVVDISKDDPEVQFSWFVDDVEVHTAQTQPREEQFNSTFRSVSELPIMHQDWLNGKEFKCRVNSAAFPAPIEKTISKTKGRPKAPQVYTIPPPKEQMAKDKVSLTCMITDFFPEDITVEWQWNGQPAENYKNTQPIMDTDGSYFVYSKLNVQKSNWEAGNTFTCSVLHEGLHNHHTEKSLSHSPGK light: not shown	179	5500	1.37	0.07
